In paper PMC7367873, “Dissecting the sequence determinants for dephosphorylation by the catalytic subunits of phosphatases PP1 and PP2A” (Nature Communications, 2020):

Key:
GFP-14-3-3β = GFP-14-3-3β co-IP with LC-MS/MS, untreated GFP-14-3-3β versus GFP control (14-3-3 interactome); assay type: binding, human
[1] = test system: GFP-14-3-3β and its binding proteins; experiment: GFP-14-3-3β co-IP with LC-MS/MS label-free quantification, untreated versus PP1c-treated; set-up: species or system human
[2] = untreated vs GFP, LFQ intensities, replicates 1-3
[3] = PP1 vs untreated, LFQ intensities, replicates 1-3

B1: HSD17B4 (protein, UniProt P51659 1-736, looked up)
Peroxisomal multifunctional …: MGSPLRFDGRVVLVTGAGAGLGRAYALAFAERGALVVVNDLGGDFKGVGKGSLAADKVVEEIRRRGGKAVANYDSVEEGEKVVKTALDAFGRIDVVVNNAGILRDRSFARISDEDWDIIHRVHLRGSFQVTRAAWEHMKKQKYGRIIMTSSASGIYGNFGQANYSAAKLGLLGLANSLAIEGRKSNIHCNTIAPNAGSRMTQTVMPEDLVEALKPEYVAPLVLWLCHESCEENGGLFEVGAGWIGKLRWERTLGAIVRQKNHPMTPEAVKANWKKICDFENASKPQSIQESTGSIIEVLSKIDSEGGVSANHTSRATSTATSGFAGAIGQKLPPFSYAYTELEAIMYALGVGASIKDPKDLKFIYEGSSDFSCLPTFGVIIGQKSMMGGGLAEIPGLSINFAKVLHGEQYLELYKPLPRAGKLKCEAVVADVLDKGSGVVIIMDVYSYSEKELICHNQFSLFLVGSGGFGGKRTSDKVKVAVAIPNRPPDAVLTDTTSLNQAALYRLSGDWNPLHIDPNFASLAGFDKPILHGLCTFGFSARRVLQQFADNDVSRFKAIKARFAKPVYPGQTLQTEMWKEGNRIHFQTKVQETGDIVISNAYVDLAPTSGTSAKTPSEGGKLQSTFVFEEIGRRLKDIGPEVVKKVNAVFEWHITKGGNIGAKWTIDLKSGSGKVYQGPAKGAADTTIILSDEDFMEVVLGKLDPQKAFFSGRLKARGNIMLSQKLQMILKDYAKL
GFP-14-3-3β; [2]
  Difference (log2), untreated vs GFP: -0.9814 log2
[1]; [3]
  Difference (log2), PP1 vs untreated: -0.9107 log2

B2: FLII (protein, UniProt Q13045 1-1269, looked up)
Protein flightless-1 homolog: MEATGVLPFVRGVDLSGNDFKGGYFPENVKAMTSLRWLKLNRTGLCYLPEELAALQKLEHLSVSHNNLTTLHGELSSLPSLRAIVARANSLKNSGVPDDIFKLDDLSVLDLSHNQLTECPRELENAKNMLVLNLSHNSIDTIPNQLFINLTDLLYLDLSENRLESLPPQMRRLVHLQTLVLNGNPLLHAQLRQLPAMTALQTLHLRSTQRTQSNLPTSLEGLSNLADVDLSCNDLTRVPECLYTLPSLRRLNLSSNQITELSLCIDQWVHVETLNLSRNQLTSLPSAICKLSKLKKLYLNSNKLDFDGLPSGIGKLTNLEEFMAANNNLELVPESLCRCPKLRKLVLNKNHLVTLPEAIHFLTEIEVLDVRENPNLVMPPKPADRAAEWYNIDFSLQNQLRLAGASPATVAAAAAAGSGPKDPMARKMRLRRRKDSAQDDQAKQVLKGMSDVAQEKNKKQEESADARAPSGKVRRWDQGLEKPRLDYSEFFTEDVGQLPGLTIWQIENFVPVLVEEAFHGKFYEADCYIVLKTFLDDSGSLNWEIYYWIGGEATLDKKACSAIHAVNLRNYLGAECRTVREEMGDESEEFLQVFDNDISYIEGGTASGFYTVEDTHYVTRMYRVYGKKNIKLEPVPLKGTSLDPRFVFLLDRGLDIYVWRGAQATLSSTTKARLFAEKINKNERKGKAEITLLVQGQELPEFWEALGGEPSEIKKHVPEDFWPPQPKLYKVGLGLGYLELPQINYKLSVEHKQRPKVELMPRMRLLQSLLDTRCVYILDCWSDVFIWLGRKSPRLVRAAALKLGQELCGMLHRPRHATVSRSLEGTEAQVFKAKFKNWDDVLTVDYTRNAEAVLQSPGLSGKVKRDAEKKDQMKADLTALFLPRQPPMSLAEAEQLMEEWNEDLDGMEGFVLEGKKFARLPEEEFGHFYTQDCYVFLCRYWVPVEYEEEEKKEDKEEKAEGKEGEEATAEAEEKQPEEDFQCIVYFWQGREASNMGWLTFTFSLQKKFESLFPGKLEVVRMTQQQENPKFLSHFKRKFIIHRGKRKAVQGAQQPSLYQIRTNGSALCTRCIQINTDSSLLNSEFCFILKVPFESEDNQGIVYAWVGRASDPDEAKLAEDILNTMFDTSYSKQVINEGEEPENFFWVGIGAQKPYDDDAEYMKHTRLFRCSNEKGYFAVTEKCSDFCQDDLADDDIMLLDNGQEVYMWVGTQTSQVEIKLSLKACQVYIQHMRSKEHERPRRLRLVRKGNEQHAFTRCFHAWSAFCKALA
GFP-14-3-3β; [2]
  Difference (log2), untreated vs GFP: 1.165 log2
[1]; [3]
  Difference (log2), PP1 vs untreated: -0.8907 log2

B3: TMEM33 (protein, UniProt P57088 2-247, looked up)
Transmembrane protein 33: ADTTPNGPQGAGAVQFMMTNKLDTAMWLSRLFTVYCSALFVLPLLGLHEAASFYQRALLANALTSALRLHQRLPHFQLSRAFLAQALLEDSCHYLLYSLIFVNSYPVTMSIFPVLLFSLLHAATYTKKVLDARGSNSLPLLRSVLDKLSANQQNILKFIACNEIFLMPATVFMLFSGQGSLLQPFIYYRFLTLRYSSRRNPYCRTLFNELRIVVEHIIMKPACPLFVRRLCLQSIAFISRLAPTVP
GFP-14-3-3β; log2 difference, pairwise comparison untreated vs GFP, label-free quantification, 3 replicates each
  Difference (log2), untreated vs GFP: 0.3842
[1]; log2 difference, pairwise comparison PP1 vs untreated, label-free quantification, 3 replicates each
  Difference (log2), PP1 vs untreated: 1.645

B4: TJP2 (protein, UniProt Q9UDY2 1-1190, looked up)
Tight junction protein 2: MPVRGDRGFPPRRELSGWLRAPGMEELIWEQYTVTLQKDSKRGFGIAVSGGRDNPHFENGETSIVISDVLPGGPADGLLQENDRVVMVNGTPMEDVLHSFAVQQLRKSGKVAAIVVKRPRKVQVAALQASPPLDQDDRAFEVMDEFDGRSFRSGYSERSRLNSHGGRSRSWEDSPERGRPHERARSRERDLSRDRSRGRSLERGLDQDHARTRDRSRGRSLERGLDHDFGPSRDRDRDRSRGRSIDQDYERAYHRAYDPDYERAYSPEYRRGARHDARSRGPRSRSREHPHSRSPSPEPRGRPGPIGVLLMKSRANEEYGLRLGSQIFVKEMTRTGLATKDGNLHEGDIILKINGTVTENMSLTDARKLIEKSRGKLQLVVLRDSQQTLINIPSLNDSDSEIEDISEIESNRSFSPEERRHQYSDYDYHSSSEKLKERPSSREDTPSRLSRMGATPTPFKSTGDIAGTVVPETNKEPRYQEDPPAPQPKAAPRTFLRPSPEDEAIYGPNTKMVRFKKGDSVGLRLAGGNDVGIFVAGIQEGTSAEQEGLQEGDQILKVNTQDFRGLVREDAVLYLLEIPKGEMVTILAQSRADVYRDILACGRGDSFFIRSHFECEKETPQSLAFTRGEVFRVVDTLYDGKLGNWLAVRIGNELEKGLIPNKSRAEQMASVQNAQRDNAGDRADFWRMRGQRSGVKKNLRKSREDLTAVVSVSTKFPAYERVLLREAGFKRPVVLFGPIADIAMEKLANELPDWFQTAKTEPKDAGSEKSTGVVRLNTVRQIIEQDKHALLDVTPKAVDLLNYTQWFPIVIFFNPDSRQGVKTMRQRLNPTSNKSSRKLFDQANKLKKTCAHLFTATINLNSANDSWFGSLKDTIQHQQGEAVWVSEGKMEGMDDDPEDRMSYLTAMGADYLSCDSRLISDFEDTDGEGGAYTDNELDEPAEEPLVSSITRSSEPVQHEESIRKPSPEPRAQMRRAASSDQLRDNSPPPAFKPEPPKAKTQNKEESYDFSKSYEYKSNPSAVAGNETPGASTKGYPPPVAAKPTFGRSILKPSTPIPPQEGEEVGESSEEQDNAPKSVLGKVKIFEKMDHKARLQRMQELQEAQNARIEIAQKHPDIYAVPIKTHKPDPGTPQHTSSRPPEPQKAPSRPYQDTRGSYGSDAEEEEYRQQLSEHSKRGYYGQSARYRDTEL
GFP-14-3-3β; [2]
  Difference (log2), untreated vs GFP: 5.699 log2
[1]; [3]
  Difference (log2), PP1 vs untreated: -0.9629 log2

B5: GIGYF2 (protein, UniProt Q6Y7W6 2-1299, looked up)
GRB10-interacting GYF protein …: AAETQTLNFGPEWLRALSSGGSITSPPLSPALPKYKLADYRYGREEMLALFLKDNKIPSDLLDKEFLPILQEEPLPPLALVPFTEEEQRNFSMSVNSAAVLRLTGRGGGGTVVGAPRGRSSSRGRGRGRGECGFYQRSFDEVEGVFGRGGGREMHRSQSWEERGDRRFEKPGRKDVGRPNFEEGGPTSVGRKHEFIRSESENWRIFREEQNGEDEDGGWRLAGSRRDGERWRPHSPDGPRSAGWREHMERRRRFEFDFRDRDDERGYRRVRSGSGSIDDDRDSLPEWCLEDAEEEMGTFDSSGAFLSLKKVQKEPIPEEQEMDFRPVDEGEECSDSEGSHNEEAKEPDKTNKKEGEKTDRVGVEASEETPQTSSSSARPGTPSDHQSQEASQFERKDEPKTEQTEKAEEETRMENSLPAKVPSRGDEMVADVQQPLSQIPSDTASPLLILPPPVPNPSPTLRPVETPVVGAPGMGSVSTEPDDEEGLKHLEQQAEKMVAYLQDSALDDERLASKLQEHRAKGVSIPLMHEAMQKWYYKDPQGEIQGPFNNQEMAEWFQAGYFTMSLLVKRACDESFQPLGDIMKMWGRVPFSPGPAPPPHMGELDQERLTRQQELTALYQMQHLQYQQFLIQQQYAQVLAQQQKAALSSQQQQQLALLLQQFQTLKMRISDQNIIPSVTRSVSVPDTGSIWELQPTASQPTVWEGGSVWDLPLDTTTPGPALEQLQQLEKAKAAKLEQERREAEMRAKREEEERKRQEELRRQQEEILRRQQEEERKRREEEELARRKQEEALRRQREQEIALRRQREEEERQQQEEALRRLEERRREEEERRKQEELLRKQEEEAAKWAREEEEAQRRLEENRLRMEEEAARLRHEEEERKRKELEVQRQKELMRQRQQQQEALRRLQQQQQQQQLAQMKLPSSSTWGQQSNTTACQSQATLSLAEIQKLEEERERQLREEQRRQQRELMKALQQQQQQQQQKLSGWGNVSKPSGTTKSLLEIQQEEARQMQKQQQQQQQHQQPNRARNNTHSNLHTSIGNSVWGSINTGPPNQWASDLVSSIWSNADTKNSNMGFWDDAVKEVGPRNSTNKNKNNASLSKSVGVSNRQNKKVEEEEKLLKLFQGVNKAQDGFTQWCEQMLHALNTANNLDVPTFVSFLKEVESPYEVHDYIRAYLGDTSEAKEFAKQFLERRAKQKANQQRQQQQLPQQQQQQPPQQPPQQPQQQDSVWGMNHSTLHSVFQTNQSNNQQSNFEAVQSGKKKKKQKMVRADPSLLGFSVNASSERLNMGEIETLDDY
GFP-14-3-3β; [2]
  Difference (log2), untreated vs GFP: 2.445 log2
[1]; [3]
  Difference (log2), PP1 vs untreated: -0.9344 log2

B6: HNRNPA3 (protein, UniProt P51991 1-378, looked up)
Heterogeneous nuclear …: MEVKPPPGRPQPDSGRRRRRRGEEGHDPKEPEQLRKLFIGGLSFETTDDSLREHFEKWGTLTDCVVMRDPQTKRSRGFGFVTYSCVEEVDAAMCARPHKVDGRVVEPKRAVSREDSVKPGAHLTVKKIFVGGIKEDTEEYNLRDYFEKYGKIETIEVMEDRQSGKKRGFAFVTFDDHDTVDKIVVQKYHTINGHNCEVKKALSKQEMQSAGSQRGRGGGSGNFMGRGGNFGGGGGNFGRGGNFGGRGGYGGGGGGSRGSYGGGDGGYNGFGGDGGNYGGGPGYSSRGGYGGGGPGYGNQGGGYGGGGGYDGYNEGGNFGGGNYGGGGNYNDFGNYSGQQQSNYGPMKGGSFGGRSSGSPYGGGYGSGGGSGGYGSRRF
GFP-14-3-3β; [2]
  Difference (log2), untreated vs GFP: 1.1202 log2
[1]; [3]
  Difference (log2), PP1 vs untreated: -0.8983 log2

B7: DBN1 (protein, UniProt Q16643 2-649, looked up)
Drebrin: AGVSFSGHRLELLAAYEEVIREESAADWALYTYEDGSDDLKLAASGEGGLQELSGHFENQKVMYGFCSVKDSQAALPKYVLINWVGEDVPDARKCACASHVAKVAEFFQGVDVIVNASSVEDIDAGAIGQRLSNGLARLSSPVLHRLRLREDENAEPVGTTYQKTDAAVEMKRINREQFWEQAKKEEELRKEEERKKALDERLRFEQERMEQERQEQEERERRYREREQQIEEHRRKQQTLEAEEAKRRLKEQSIFGDHRDEEEETHMKKSESEVEEAAAIIAQRPDNPREFFKQQERVASASAGSCDVPSPFNHRPGSHLDSHRRMAPTPIPTRSPSDSSTASTPVAEQIERALDEVTSSQPPPLPPPPPPAQETQEPSPILDSEETRAAAPQAWAGPMEEPPQAQAPPRGPGSPAEDLMFMESAEQAVLAAPVEPATADATEIHDAADTIETDTATADTTVANNVPPAATSLIDLWPGNGEGASTLQGEPRAPTPPSGTEVTLAEVPLLDEVAPEPLLPAGEGCATLLNFDELPEPPATFCDPEEVEGESLAAPQTPTLPSALEELEQEQEPEPHLLTNGETTQKEGTQASEGYFSQSQEEEFAQSEELCAKAPPPVFYNKPPEIDITCWDADPVPEEEEGFEGGD
GFP-14-3-3β; [2]
  Difference (log2), untreated vs GFP: -0.06481 log2
[1]; [3]
  Difference (log2), PP1 vs untreated: -0.9011 log2
